The values that follow are results of earlier work, collected in US6913917B2, “Anti-cocaine catalytic antibody” (priority 1996, dated 2005).

This data set concerns toxicity due to intraperitoneal cocaine. To be noted: intraperitoneal administration, mouse; cited from earlier work.

B1: butyrylcholinesterase: the enzyme butyrylcholinesterase; plasma enzyme that deactivates cocaine (protein, UniProt P06276 29-602, looked up)
Cholinesterase: EDDIIIATKNGKVRGMNLTVFGGTVTAFLGIPYAQPPLGRLRFKKPQSLTKWSDIWNATKYANSCCQNIDQSFPGFHGSEMWNPNTDLSEDCLYLNVWIPAPKPKNATVLIWIYGGGFQTGTSSLHVYDGKFLARVERVIVVSMNYRVGALGFLALPGNPEAPGNMGLFDQQLALQWVQKNIAAFGGNPKSVTLFGESAGAASVSLHLLSPGSHSLFTRAILQSGSFNAPWAVTSLYEARNRTLNLAKLTGCSRENETEIIKCLRNKDPQEILLNEAFVVPYGTPLSVNFGPTVDGDFLTDMPDILLELGQFKKTQILVGVNKDEGTAFLVYGAPGFSKDNNSIITRKEFQEGLKIFFPGVSEFGKESILFHYTDWVDDQRPENYREALGDVVGDYNFICPALEFTKKFSEWGNNAFFYYFEHRSSKLPWPEWMGVMHGYEIEFVFGLPLERRDNYTKAEEILSRSIVKRWANFAKYGNPNETQNNSTSWPVFKSTEQKYLTLNTESTRIMTKLRAQQCRFWTSFFPKVLEMTGNIDEAEWEWKAGFHRWNNYMMDWKNQFNDYTSKKESCVGL
As for B1, the “effect on toxicity due to intraperitoneal cocaine” value is listed as “inhibit toxicity”.
